In PMC3245936 (Nucleic Acids Research, 2011):

T1: SpPot1 (Schizosaccharomyces pombe, UniProt O13988 1-555)
T1 sequence: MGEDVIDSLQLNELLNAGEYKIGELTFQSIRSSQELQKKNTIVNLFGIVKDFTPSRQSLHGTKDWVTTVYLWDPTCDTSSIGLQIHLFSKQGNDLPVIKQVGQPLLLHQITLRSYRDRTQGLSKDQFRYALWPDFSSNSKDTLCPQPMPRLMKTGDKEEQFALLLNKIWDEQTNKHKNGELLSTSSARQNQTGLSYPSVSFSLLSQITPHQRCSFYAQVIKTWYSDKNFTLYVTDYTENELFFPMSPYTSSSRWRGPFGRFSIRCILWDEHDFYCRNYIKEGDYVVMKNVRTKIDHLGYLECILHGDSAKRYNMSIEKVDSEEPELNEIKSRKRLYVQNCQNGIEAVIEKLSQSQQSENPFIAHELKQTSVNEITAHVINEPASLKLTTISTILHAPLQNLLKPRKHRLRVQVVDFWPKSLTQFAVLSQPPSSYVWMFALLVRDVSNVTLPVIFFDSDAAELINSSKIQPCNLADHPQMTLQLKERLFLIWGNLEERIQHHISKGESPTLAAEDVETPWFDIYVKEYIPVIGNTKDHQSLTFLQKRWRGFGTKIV

T2: SpPot1;Tpz1-1-234 (Schizosaccharomyces …, UniProt O13988;O14246 1-555;1-234, |)
T2 sequence 1: T1 sequence
T2 sequence 2: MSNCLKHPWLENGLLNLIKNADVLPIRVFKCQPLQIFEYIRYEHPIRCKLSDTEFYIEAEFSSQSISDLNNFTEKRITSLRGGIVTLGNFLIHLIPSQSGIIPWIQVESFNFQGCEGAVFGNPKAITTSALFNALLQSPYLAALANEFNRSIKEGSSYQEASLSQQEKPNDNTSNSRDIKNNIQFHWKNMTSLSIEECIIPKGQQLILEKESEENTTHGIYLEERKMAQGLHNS

T3: full-length SpPot1 (Schizosaccharomyces pombe Pot1) (S. pombe, UniProt O13988 1-555)
T3 sequence (looked up): T1 sequence

B1: Tpz1-1–234 (domain or fragment, S. pombe, UniProt O14246 1-234, looked up)
chain: T2 sequence 2

What follows are binders tested against T1, SpPot1 (assay: filter binding).

GGTTACAGGGGTTAC (mixed, ribonucleotides (rArGrG) at 7-9) [d12rArGrG] and GGTTACGGTTAC (ssDNA) [d12] are within error of each other in Kd: 4 ± 0.5 nM for the first, 5 ± 1.3 nM for the second.

First: GGTTACGGTTAC (mixed, ribonucleotides at 6 and 12) [r6r12]
Second: GGUUACGGUUAC (mixed, ribonucleotides (rU) at 3, 4, 9 and 10) [r3r4r9r10]
The Kd of the first is 74-fold lower: 3.2 ± 0.6 nM for the first, roughly 238 nM for the second.

First: GGTTACAGGTTAC (mixed, ribonucleotide (rA) at 7) [d12rA]
Second: GGTTACGGTTAC (mixed, ribonucleotides at 1 and 7) [r1r7]
The Kd of the first is 1.5-fold lower: 3.4 ± 0.3 nM for the first, 5.1 ± 0.01 nM for the second. The first binds more tightly here.

Compared with GGTTACGGTTAC (mixed, ribonucleotides at 5 and 11) [r5r11], GGUUACGGUUAC (ssRNA) [r12] is 97-fold higher in Kd: 3.34 ± 0.4 nM for the first, roughly 324 nM for the second. The first binds more tightly here.

Going from GGTTACGGTTAC (mixed, ribonucleotides at 2 and 8) [r2r8] to GGTTACAGGGGTTAC (ssDNA) [d12dAdGdG], the Kd rises from 3.2 ± 0.5 nM to 4.9 ± 0.7 nM (1.5-fold). The first binds more tightly here.

GGTTACAGGTTAC (ssDNA) [d12dA] was tested, and the Kd was 4.3 ± 0.6 nM.

The binders below were run against T1, SpPot1 (assay: size-exclusion chromatography).

GGTTAC (ssDNA): binds.

What follows are binders tested against T2, SpPot1;Tpz1-1-234 (assay: filter binding).

GGTTACGGTTAC (ssDNA) [d12] and GGTTACGGTTAC (mixed, ribonucleotides at 6 and 12) [r6r12] are within error of each other in Kd: 0.22 ± 0.03 nM for the first, 0.3 ± 0.05 nM for the second.

GGTTACGGTTAC (mixed, ribonucleotides at 1 and 7) [r1r7] and GGTTACGGTTAC (mixed, ribonucleotides at 5 and 11) [r5r11] are the same in Kd: 0.31 ± 0.02 nM for the first, 0.31 ± 0.05 nM for the second.

Compared with GGUUACGGUUAC (ssRNA) [r12], GGTTACGGTTAC (mixed, ribonucleotides at 2 and 8) [r2r8] is 5300-fold lower in Kd: roughly 1000 nM for the first, 0.19 ± 0.03 nM for the second. The second binds more tightly here.

Each binder was assayed against T3, full-length SpPot1 (Schizosaccharomyces …) (assay: native gel or EMSA).

B1: binds.
